From US20100048462A1, “TRUNCATED PTH PEPTIDES WITH A CYCLIC CONFORMATION” (Zealand Pharma A/S, priority 2006, published 2010)
Each block holds one molecule with its values, some of them ahead of it. Bridge positions count the residues as written; N and C are the ends. Square brackets hold non-standard residues; d marks the D form. hArg = N=C(N)NCCCC[C@H](N)C(=O)O; Met(O) = CS(=O)CC[C@H](N)C(=O)O; Ac5c = NC1(C(=O)O)CCCC1; Abu = CC[C@H](N)C(=O)O; Aib = CC(C)(N)C(=O)O

Biological target: Saos-2 PTH1R (UniProt Q03431)
Test: cell-based or functional assay

Molecule: H-Ac5c-Val-Nva-Glu-Ile-Gln-Leu-Leu-His-Gln-Har-Ala-Lys( )-Trp-Leu-Asn-Asp( )-NH2 (peptide)
Emax, cAMP efficacy assay in Saos-2 cells (16T, trifluoroacetate salt) (relative to control (SEQ ID NO: 32)): 1.03 | pEC50, cAMP efficacy assay in Saos-2 cells (16T, trifluoroacetate salt): 6.92 -log(M)

Molecule: H-Ac6c-Val-Aib-Glu-Ile-Gln-Leu-Leu-His-Gln-Har-Ala-Lys( )-Trp-Leu-Asn-Asp( )-NH2 (peptide)
Emax, cAMP efficacy assay in Saos-2 cells (10T, trifluoroacetate salt) (relative to control (SEQ ID NO: 32)): 1.08 | pEC50, cAMP efficacy assay in Saos-2 cells (10T, trifluoroacetate salt): 7.9 -log(M)

Molecule: H-Nva-Val-Aib-Glu-Ile-Gln-Leu-Leu-His-Gln-Har-Ala-Lys( )-Trp-Leu-Asn-Asp( )-NH2 (peptide)
Emax, cAMP efficacy assay in Saos-2 cells (12T, trifluoroacetate salt) (relative to control (SEQ ID NO: 32)): 1.04 | pEC50, cAMP efficacy assay in Saos-2 cells (12T, trifluoroacetate salt): 6.99 -log(M)

Molecule: H-[Ac5c]V[Aib]EIQLMHQ[hArg]AKWLND-OH
Emax, cAMP efficacy assay in Saos-2 cells (38T, trifluoroacetate salt) (relative to control (SEQ ID NO: 32)): 1.2 | pEC50, cAMP efficacy assay in Saos-2 cells (38T, trifluoroacetate salt): 7 -log(M)

Molecule: H-[Ac5c]V[Aib]EIQL[Met(O)]HQ[hArg]AKWLND-NH2 (lactam 13-17) [H-Ac5c-Val-Aib-Glu-Ile-Gln-Leu-Met(O)-His-Gln-Har-Ala-Lys( )-Trp-Leu-Asn-Asp( )-NH2]
Emax, cAMP efficacy assay in Saos-2 cells (40T, trifluoroacetate salt) (relative to control (SEQ ID NO: 32)): 1.1 | pEC50, cAMP efficacy assay in Saos-2 cells (40T, trifluoroacetate salt): 6.9 -log(M)

Other lines, results leading:

Emax, cAMP efficacy assay in Saos-2 cells (6T, trifluoroacetate salt) (relative to control (SEQ ID NO: 32)): 1.5 | pEC50, cAMP efficacy assay in Saos-2 cells (6T, trifluoroacetate salt): 6.9 -log(M)
Molecule: H-Ac5c-Val-Aib-Glu-Ile-Gln-Leu-Met-His-Gln-Har-Ala-Asp( )-Trp-Leu-Asn-Lys( )-NH2 (peptide)

Emax, cAMP efficacy assay in Saos-2 cells (26T, trifluoroacetate salt) (relative to control (SEQ ID NO: 32)): 1.08 | pEC50, cAMP efficacy assay in Saos-2 cells (26T, trifluoroacetate salt): 7.9 -log(M)
Molecule: H-Ac5c-Val-Aib-Glu-Ile-Gln-Leu-Met-His-Gln-Har-Ala-Lys( )-Phe-Leu-Asn-Asp( )-NH2 (peptide)

Emax, cAMP efficacy assay in Saos-2 cells (5T, trifluoroacetate salt) (relative to control (SEQ ID NO: 32)): 1.16 | pEC50, cAMP efficacy assay in Saos-2 cells (5T, trifluoroacetate salt): 7.14 -log(M)
B1: H-Ac5c-Val-Aib-Glu-Ile-Gln-Leu-Leu-His-Gln-Har-Ala-Lys( )-Trp-Leu-Asn-Asp( )-OH (peptide)
chain: H-[Ac5c]V[Aib]EIQLLHQ[hArg]AKWLND-OH
modifications: lactam 13-17
SMILES: CC[C@H](C)[C@H](NC(=O)[C@H](CCC(=O)O)NC(=O)C(C)(C)NC(=O)[C@@H](NC(=O)C1(N)CCCC1)C(C)C)C(=O)N[C@@H](CCC(N)=O)C(=O)N[C@@H](CC(C)C)C(=O)N[C@@H](CC(C)C)C(=O)N[C@@H](Cc1c[nH]cn1)C(=O)N[C@@H](CCC(N)=O)C(=O)N[C@@H](CCCCNC(=N)N)C(=O)N[C@@H](C)C(=O)N[C@H]1CCCCNC(=O)C[C@@H](C(=O)O)NC(=O)[C@H](CC(N)=O)NC(=O)[C@H](CC(C)C)NC(=O)[C@H](Cc2c[nH]c3ccccc23)NC1=O

Emax, cAMP efficacy assay in Saos-2 cells (11T, trifluoroacetate salt) (relative to control (SEQ ID NO: 32)): 1.04 | pEC50, cAMP efficacy assay in Saos-2 cells (11T, trifluoroacetate salt): 7.17 -log(M)
B2: H-Abu-Val-Aib-Glu-Ile-Gln-Leu-Leu-His-Gln-Har-Ala-Lys( )-Trp-Leu-Asn-Asp( )-NH2 (peptide)
chain: H-[Abu]V[Aib]EIQLLHQ[hArg]AKWLND-NH2
modifications: lactam 13-17
SMILES: CC[C@H](N)C(=O)N[C@H](C(=O)NC(C)(C)C(=O)N[C@@H](CCC(=O)O)C(=O)N[C@H](C(=O)N[C@@H](CCC(N)=O)C(=O)N[C@@H](CC(C)C)C(=O)N[C@@H](CC(C)C)C(=O)N[C@@H](Cc1c[nH]cn1)C(=O)N[C@@H](CCC(N)=O)C(=O)N[C@@H](CCCCNC(=N)N)C(=O)N[C@@H](C)C(=O)N[C@H]1CCCCNC(=O)C[C@@H](C(N)=O)NC(=O)[C@H](CC(N)=O)NC(=O)[C@H](CC(C)C)NC(=O)[C@H](Cc2c[nH]c3ccccc23)NC1=O)[C@@H](C)CC)C(C)C
